T1: rat IL-11 (rat, UniProt Q99MF5 22-199)
T1 construct: Invigate recombinant protein; also called rIL11
T1 sequence: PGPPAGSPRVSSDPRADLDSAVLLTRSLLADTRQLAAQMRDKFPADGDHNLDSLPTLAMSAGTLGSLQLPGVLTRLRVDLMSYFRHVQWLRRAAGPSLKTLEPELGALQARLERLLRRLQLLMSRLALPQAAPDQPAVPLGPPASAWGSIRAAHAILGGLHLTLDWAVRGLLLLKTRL

T2: human IL-11 (human, UniProt P20809 22-199)
T2 construct: Invigate recombinant protein; biotinylated when immobilized in the Di-complex ELISA; also called hIL11; hIL-11
T2 sequence: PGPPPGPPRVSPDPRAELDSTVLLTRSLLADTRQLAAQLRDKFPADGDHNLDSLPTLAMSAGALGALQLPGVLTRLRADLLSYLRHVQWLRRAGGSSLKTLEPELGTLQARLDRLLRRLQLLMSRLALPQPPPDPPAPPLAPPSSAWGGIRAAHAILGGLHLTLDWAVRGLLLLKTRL

T3: cynomolgus IL-11 (cynomolgus, UniProt P20808 22-199)
T3 construct: Invigate recombinant protein; also called cIL11; Macaca IL-11
T3 sequence: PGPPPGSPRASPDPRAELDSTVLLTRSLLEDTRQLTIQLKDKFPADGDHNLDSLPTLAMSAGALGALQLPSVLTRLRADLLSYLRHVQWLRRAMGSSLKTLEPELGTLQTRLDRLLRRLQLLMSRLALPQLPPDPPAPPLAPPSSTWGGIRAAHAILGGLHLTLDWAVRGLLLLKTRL

B1: TPP-18087 (antibody, mouse IgG1, V domains shown)
VH: EVQLLESGGGLVQPGGSLRLSCAASGFTFSHYDMNWLRQAPGKGLEWVGVISYDGSNKFYADFVKGRFTISRDNSKNTLYLQMNSLRAEDTAVYYCARTPGSHFDYWGQGTLVTVSS
VL: QSVLTQPPSASGTPGQRVTISCSGSSSNIGNNAVNWYQQLPGTAPKLLIYYDDLLPSGVPDRFSGSKSGTSASLAISGLRSEDEADYYCSAWDDSLNGVVFGGGTKLTVLG
notes: mIgG1, Lambda
B2: TPP-18068 (antibody, mouse IgG1)
heavy: EVQLLESGGGLVQPGGSLRLSCAASGFTFSSYGMHWVRQAPGKGLEWVSVISYDGSYKYYADSVKGRFTISRDNSKNTLYLQMNSLRAEDTAVYYCAAGVPDYWGQGTLVTVSSAKTTPPSVYPLAPGSAAQTNSMVTLGCLVKGYFPEPVTVTWNSGSLSSGVHTFPAVLQSDLYTLSSSVTVPSSTWPSETVTCNVAHPASSTKVDKKIVPRDCGCKPCICTVPEVSSVFIFPPKPKDVLTITLTPKVTCVVVDISKDDPEVQFSWFVDDVEVHTAQTQPREEQFNSTFRSVSELPIMHQDWLNGKEFKCRVNSAAFPAPIEKTISKTKGRPKAPQVYTIPPPKEQMAKDKVSLTCMITDFFPEDITVEWQWNGQPAENYKNTQPIMDTDGSYFVYSKLNVQKSNWEAGNTFTCSVLHEGLHNHHTEKSLSHSPGK
light: QSVLTQPPSASGTPGQRVTISCTGSSSNIGAGYDVHWYQQLPGTAPKLLIYSNNERPSGVPDRFSGSKSGTSASLAISGLRSEDEADYYCAAWDDSLNGPVFGGGTKLTVLGQPKSSPSVTLFPPSSEELETNKATLVCTITDFYPGVVTVDWKVDGTPVTQGMETTQPSKQSNNKYMASSYLTLTARAWERHSSYSCQVTHEGHTVEKSLSRADCS
notes: mIgG1, Lambda

Legend:
rat IL-11 = target: T1, rat IL-11; assay: SPR (Biacore), 25 C, antibody captured via anti-Fc, IL-11 as analyte, determined in steady state; SPR at 25 C, determined in steady state
Description: (§1) To assess the binding kinetics and affinity of anti-IL-11 bispecific antibodies as well as their species cross-reactivity profile, binding assays were conducted using surface plasmon resonance (SPR). […] Antibodies were captured either via anti-human Fc IgGs (“Human antibody capture kit”, Order No. BR100839, Cytiva) or via anti-mouse Fc IgGs (“Mouse antibody capture kit, Order No. BR100383, Cytiva) covalently amine coupled to a Series S CM5 sensor chip (Cytiva) depending on the isotype. The amine coupling was carried out according to the manufacturer's instructions using 1-ethyl-3-(3-dimethylaminopropyl) carbodiimide hydrochloride (EDC), N-hydroxysuccinimide (NHS) and ethanolamine HCl, pH 8.5 (“Amine Coupling Kit” BR-1000-50, Cytiva.). Human, mouse, cynomolgus or rat IL-11 was used as analyte at several dilutions within the concentration range from 0.05-200 nM. For binding assays with only one concentration 200 nM IL-11 was used. The sensor surface was regenerated with glycine pH 1.7 after each antigen injection. Obtained sensorgrams were double referenced (subtraction of reference flow cell signal and buffer injection) and were fitted to a 1:1 Langmuir binding model to derive kinetic data using the Biacore T200 Evaluation software or the Biacore Insight software.
(§2) If no value is reported, there was either no binding or very low binding and multiphasic binding behavior.

human IL-11 [1] = target: T2, human IL-11; assay: as above
Description: as §1, §2

cynomolgus IL-11 = target: T3, cynomolgus IL-11; assay: as above
Description: as §1, §2

human IL-11 [2] = target: T2, human IL-11; assay: Tri-complex ELISA, hIL-11 + mIL-11Ra-Fc + hgp130-Fc, inhibition of complex formation; Tri-complex ELISA (IL-11/IL-11Ra/gp130 formation)
Description: In the Tri-complex ELISA format IL-11 antibodies are tested for their ability to inhibit the formation of a complex consisting of murine or human gp130-Fc fusion protein, with murine or human IL-11, and a murine IL11RA-Fc fusion protein. The assay format was adapted according to FIG. 18 (a, b), depending on whether murine or human IL-11 IgG antibodies were tested.
The assay was performed using High Binding microtiter plates (Greiner, #781077). In a first step, 25 μl of goat anti human IgG (Sigma, #12136), diluted 1:1000 in coating buffer (Candor, #121125) was coated on the plate at 4° C. overnight. Next day, the plate was washed one time with 50 μl PBST and then blocked with 50 μl SmartBlock (Candor, #113125) for one hour at room temperature (RT). […] After three additional washes of the coated and blocked microtiter plate with PBS-T, 25 μl of each mixture were added and the assay plate was incubated for one hour at room temperature. After three additional washes, anti-mouse-gp130 biotinylated antibody (R&D, #BAF468) or anti-human gp130 biotinylated antibody (R&D, #BAF228), both 1:1000 in 10% SmartBlock PBS-T, was added and incubated for 1 hour at RT. After three additional washes, a Streptavidin-Peroxidase conjugate (Sigma, #S5512) 1:1000 in SmartBlock PBS-T was added and incubated for one hour at room temperature. […] Then, the fluorescence was measured with a plate reader at 535/595 nm. […]

Binder	Kd (rat IL-11)	Kd (human IL-11 [1])	Kd (cynomolgus IL-11)	IC50 (human IL-11 [2])
B1	34 nM	13 nM	56 nM	
B2				1700 nM

From patent US20240317847A1 (Bayer, published 2024)
